Assay results published in patent publication US5786462.

Assays:
[1] = biological target: T1, HIV-1 reverse transcriptase (Human immunodeficiency virus 1) (UniProt P03366+P03366); assay: inhibition; conditions: Ki' printed as ≤ 3 uM; almost no inhibition at 81 nM
[2] = biological target: T1, HIV-1 reverse transcriptase (Human immunodeficiency virus 1); assay: filter; conditions: apparent Kd, HRT buffer 37 C
[3] = system: AMV reverse transcriptase (Avian myeloblastosis virus); conditions: intramolecular 3' extension to end of template

Row | Sequence | Ki [1] [nM] | Kd [2] [nM] | activity [3] [% initiation]
1 | ATCCGCCTGATTAGCGATACTNNNNNNNNNNNNNNNNNNNNNNNNNNNNNNNNNNNACTTGAGCAAAATCACCTGCAGGGG [RO degenerate ssDNA library] | > 3000 | 1400 | 
2 | ATCCGCCTGATTAGCGATACTTACGTGAGCGTGCTGTCCCCTAAAGGTGATACGTCACTTGAGCAAAATCACCTGCAGGGG [RT26] |  |  | 50
